Assays:
[1] = biological target: T1, hARTC1 in the presence of hARTC3 (hARTC1–hARTC3 heterodimer) (Homo sapiens, UniProt P52961); experiment: etheno-NAD+ fluorescence kinetics; format: biochemical; details: 20 mM Tris-HCl pH 8.0, 37°C; hARTC1 with hARTC3 added
T1 construct: gene ART1; GST-hARTC1 (N23-C295) with His-hARTC3 (N27-C362), both from E. coli; heterodimer by size exclusion; with Ecto-ADP-ribosyltransferase 3
T1 sequence (P52961 23-295): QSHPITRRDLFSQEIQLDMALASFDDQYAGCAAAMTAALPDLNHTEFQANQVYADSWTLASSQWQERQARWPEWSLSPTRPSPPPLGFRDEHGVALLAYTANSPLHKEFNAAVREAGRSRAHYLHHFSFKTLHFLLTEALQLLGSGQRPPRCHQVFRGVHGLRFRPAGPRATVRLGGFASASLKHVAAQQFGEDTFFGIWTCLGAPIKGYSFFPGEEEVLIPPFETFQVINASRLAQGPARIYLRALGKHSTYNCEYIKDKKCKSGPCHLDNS
T1 sequence (Q13508 27-362 partner): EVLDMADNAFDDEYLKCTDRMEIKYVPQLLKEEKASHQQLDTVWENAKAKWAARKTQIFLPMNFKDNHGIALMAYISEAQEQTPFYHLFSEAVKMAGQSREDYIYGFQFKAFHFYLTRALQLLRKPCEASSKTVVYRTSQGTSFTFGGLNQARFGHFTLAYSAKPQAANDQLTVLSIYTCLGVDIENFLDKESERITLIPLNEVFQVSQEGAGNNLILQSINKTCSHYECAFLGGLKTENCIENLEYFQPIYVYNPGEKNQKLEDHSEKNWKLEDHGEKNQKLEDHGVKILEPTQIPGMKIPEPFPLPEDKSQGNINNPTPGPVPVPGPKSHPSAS

[2] = substrate: NC(=O)c1ccc[n+]([C@@H]2O[C@H](COP(=O)(O)OP(=O)(O)OC[C@H]3O[C@@H](n4cnc5c4ncn4ccnc54)[C@H](O)[C@@H]3O)[C@@H](O)[C@H]2O)c1; experiment: etheno-NAD+ NAD+ hydrolase fluorescence assay, Lineweaver-Burk; format: biochemical, Homo sapiens; details: 20 mM Tris-HCl pH 8.0, 37°C, 60 min, etheno-NAD+ 0-10 μM, enzyme 10 μg/ml
His-hARTC3 (N27–C362) = biological target: T2, His-hARTC3 (N27–C362) (human, UniProt Q13508 27-362); experiment: pull-down; GST-hARTC1 (N23–C295) and His-hARTC3 (N27–C362) purified from E. coli, incubated with Glutathione Sepharose 4B and Ni-chelating Sepharose, 4°C, 2 h; washes in NETN 100; blots with anti-His and anti-GST; details: both partners purified
T2 construct: human ARTC3 residues 27-362, printed as N27–C362 (N and C read as the N- and C-terminal limits), in pET-15b; also called His-ARTC3 (N27–C362); source: E. coli BL21 (Codon Plus), purified (Ni-chelating Sepharose); not shown: His tag, N-terminal, kept
T2 sequence (looked up): T1 sequence (Q13508 27-362 partner)

NC(=O)c1ccc[n+]([C@@H]2O[C@H](COP(=O)(O)OP(=O)(O)OC[C@H]3O[C@@H](n4cnc5c4ncn4ccnc54)[C@H](O)[C@@H]3O)[C@@H](O)[C@H]2O)c1 [etheno-NAD^+]
etheno-NAD+ fluorescence kinetics [1]: Enzymatic kinetics for etheno-NAD^+ of hARTC1 in the presence (green) or absence (red)

B1: hARTC5 (GST-ARTC5 (N23–C291)) (Homo sapiens) (protein)
chain: VPILPLGLAPDTFDDTYVGCAEEMEEKAAPLLKEEMAHHALLRESWEAAQETWEDKRRGLTLPPGFKAQNGIAIMVYTNSSNTLYWELNQAVRTGGGSRELYMRHFPFKALHFYLIRALQLLRGSGGCSRGPGEVVFRGVGSLRFEPKRLGDSVRLGQFASSSLDKAVAHRFGNATLFSLTTCFGAPIQAFSVFPKEREVLIPPHEVFLVTRFSQDGAQSLVTLWSYNQTCSHFNCAYLGGEKRRGCVSAPGALGTGDLHMTKRHLQQP
Km [2]: 56.78 ± 11.90 µM

B2: GST-hARTC1 (N23–C295) (domain or fragment, human, UniProt P52961 23-295, looked up)
chain: T1 sequence (P52961 23-295)
notes: human ARTC1 residues 23-295, printed as N23–C295 (N and C read as the N- and C-terminal limits), in pGEX-4T-1; also called GST-ARTC1 (N23–C295); source: E. coli BL21 (Codon Plus), purified (Glutathione Sepharose 4B); not shown: GST, N-terminal, kept
binding result (His-hARTC3 (N27–C362)): binds
Km [2]: 11.59 ± 1.57 µM

— publication PMC10928986, “ARTC1-mediated VAPB ADP-ribosylation regulates calcium homeostasis” (Journal of Molecular Cell Biology, 2023)
